Assay results as given in the supplement of paper PMC10057847, “Precision engineering of biological function with large-scale measurements and machine learning” (PLOS ONE, 2023).
“And” between values parts separate entries of the source, which are not always exact repeats. Identical values can stand only once. ± gives the uncertainty stated by the source.

B1: library; the commonest letter at each place (parent)
chain: MKPVTLYDVAEYAGVSYQTVSRVVNQASHVSAKTREKVEAAMAELNYIPNRVAQQLAGKQSLLIGVATSSLALHAPSQIVAAIKSRADQLGASVVVSMVERSGVEACKAAVHNLLAQRVSGLIINYPLDDQDAIAVEAACTNVPALFLDVSDQTPINSIIFSHEDGTRLGVEHLVALGHQQIALLAGPLSSVSARLRLAGWHKYLTRNQIQPIAEREGDWSAMSGFQQTMQMLNEGIVPTAMLVANDQMALGAMRAITESGLRVGADISVVGYDDTEDSSCYIPPLTTIKQDFRLLGQTSVDRLLQLSQGQAVKGNQLLPVSLVKRKTTLAPNTQTASPRALADSLMQLARQVSRLESGQ

Tests used:
Details in all cases: with IPTG
IPTG [1] = variants of: B1
Experimental: (§1)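 LacI variants on the pVER plasmid regulate eYFP behind lacO in E. coli MG1655Δlac, grown in rich M9 at 37 °C with a 2-fold IPTG dilution series. After two 160-min growth steps, YFP is read by flow cytometry and calibrated to MEF. Bayesian MCMC fits of the Hill equation give G0, G∞, EC50 and n (posterior mean ± SD).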

IPTG [2] = variants of: B1; test: Hill coefficient n (dimensionless); higher = steeper dose response
Experimental: as §1

IPTG [3] = variants of: B1; test: basal output G0 (YFP, no IPTG) (log10 MEF); higher = higher reporter expression without inducer
Experimental: as §1

IPTG [4] = variants of: B1; test: saturating output G-infinity (YFP) (log10 MEF); higher = higher reporter expression at saturating IPTG
Experimental: as §1

MKPVTLYDVAEYAGVSYQTVSRVVNQASHVSAKTRVKVEAAMAELNYIPNRVAQQLAGKQSLLIGVATSSLALHAPSQIVAAIKSRADHLGASVVVSMVERSGVEACKAAVHNLLAQRVSGLIINYPLDDQGAIAVEDACTNVPALFLDVSDQTPINSIIFSHEDGTRLGVEHLVALGHQQIALLAGPLSSVSARLRLAGWHKYLTRNQIQPIAEREGDWSAMSGFQQTMQMLNEGIVPTAMLVANDQMALGAMRAITESGLRVGADISVVGYDDTADSSCYIPPLTTIKQDFRLLGQTSVDRLLELSQGQAVKGNQLLPVTLVKRKTTLAPNTQTASPRALADSLMQLARQVSRLESGQ [E36V Q89H D132G A138D E277A Q306E S322T]
EC50 for IPTG (log10 µmol/L) (IPTG [1]): 2.315 ± 0.02
Hill coefficient n (IPTG [2]): 1.54 ± 0.044
basal output G0 (log10) (IPTG [3]): 2.12 ± 0.15
saturating output G-infinity (log10) (IPTG [4]): 4.363 ± 0.01

MKPVTLYDVAEYAGVSYQTVSRVVNQTSHVSAKTREKVEAAMAELNYIPNRVAQQLAGKQSLLIGVATSSLALHAPSQIVAAIKSRTDQLGASVVVSMVERGGVEACKAAVHNLLAQRVSGLIINYPLDDQDAIAVEAACTNVPALFLDVSDQTPINSIIFSHEDGTRLGVEHLVALGHQQIALLAGPLSSVSARLRLAGWHKYLTRNQIQPIAEREGDWSAMSGFQQTMQMLNEGIVPTAMLVANDQMALGAMRAITESGLRVGADISVVGYDDTEDSSCYIPPLTTIKQDFRLLGQTSVDRLLQLSQGQAVKGIQLLPVSLVKRKTTPAPNTQTASPRALADSLMQLARRVSRLESGQ [A27T A87T S102G N316I L330P Q352R]
EC50 for IPTG (log10 µmol/L) (IPTG [1]): 1.04 ± 0.011
Hill coefficient n (IPTG [2]): 1.44 ± 0.038
basal output G0 (log10) (IPTG [3]): 3.624 ± 0.013
saturating output G-infinity (log10) (IPTG [4]): 4.5229 ± 0.003

MKPVTLYDVAEYAGVSYQTVSRVVNQAGHVSAKMREKVEAAMAELNYIPNRVAQQLAGKRSLLIGVATSSLALHAPSQIVSAIKSRADQLGASVVVSMVKRSGVEACKAAVHNLLAQRVSGLIINYPLDDQDAIAVEAACTNVPALFVDVSDQTPINSIIFSHEDGTRLGVEHLVALGHQQIALLAGPLSSVSARLRLAGWHKYLTRNQIQPIAEREGDWNAMSGFQQTMQMLNEGIVPTAMLVANDQMALGAMRAITESGLRVGADISVLGYDDTEDSSCYIPPLTTIKQDFRLLGQTSVDRLLQLSQGQAVKGNQLLPVSLVKRKTTLAPNTQTASPRALADSLMQLARQVSRLESGQ [S28G T34M Q60R A81S E100K L148V S221N V271L]
EC50 for IPTG (log10 µmol/L) (IPTG [1]): 0.477 and 0.475
Hill coefficient n (IPTG [2]): 1.41 and 2.02
basal output G0 (log10) (IPTG [3]): 3.92
saturating output G-infinity (log10) (IPTG [4]): 4.46 and 4.41

MKPVTLYDVAEYAGVSYQTVSRVLNQASHVSAKTREKVEAAMAELNYIPNRMAQQLAGKQSLLIGVATSSLTLHAPSQIVAAIKSRADQLGASVVVSMVERSGVEACKAAVHNLLAQRVSGLIINYPLDDQDAIAVEAACTNVPALFLDVSDQTPINSIIFSHEDGTRLGVEHLVALGHQQIALLAGPLSSVSARLRLAGWHKYLTRNQIQPIVEREGDWSAMSGFQQTMQMLNEGIVPTAMLVANDQMALGAMRAITESGLRVGADVSVVGYDDTEDSSCYIPPLTTIKQDFRLLGQTSVDRLLQLSQGQAVKGNQLLPVSLVQRKTTLAHNTQTVSPRALADSLMQLARQVSRLESGQ [V24L V52M A72T A214V I268V K325Q P332H A337V]
EC50 for IPTG (log10 µmol/L) (IPTG [1]): 1.467 ± 0.0061
Hill coefficient n (IPTG [2]): 1.59 ± 0.03
basal output G0 (log10) (IPTG [3]): 2.62 ± 0.054
saturating output G-infinity (log10) (IPTG [4]): 4.2255 ± 0.002

MKPVTLYDVAEYAGVSYQTVSRVVNQASHVSAKTREKVDAAMAELNYIPNRVAQQLAGKQSLLIGVATSSLALHAPSQIVAAIKSRADQLGASVVVSMVERSGVEACKAAVHNLLAQRVSGLIINYPLDDQDAIAVEAACTNVPALFLDVSDQTPINSIIFSHEDGTRLGVEHLVALGHQQIALLAGPLSSVSARLRLAGWHKYLTRDQIQPIAEREGDWSVMSGFQQTMQMLNEGIVPTAMLVANDQMALGAMRAITESGLRVGADISVVGYDDTEDSSCYIPPLTTIKQDFRLLGQTSVDRLLQLSQGQAVKGNQLLPVSLVKRKTTLAPNTQTASPRALADSLMQLARQVSRLESGQ [E39D N208D A222V]
EC50 for IPTG (log10 µmol/L) (IPTG [1]): 1.37 ± 0.022
Hill coefficient n (IPTG [2]): 1.55 ± 0.079
basal output G0 (log10) (IPTG [3]): 3.1 ± 0.043
saturating output G-infinity (log10) (IPTG [4]): 4.484 ± 0.0081
